Patent US20230235027A1 (US Dept. of Health and Human Services, published 2023)
Several values for one entry are separate records, joined by “and”; a condition that tells them apart may be missing. Equal values may be shown once.

Key:
[1] = biological target: T1, SARS-CoV-2 RBD mutant W436R (SARS-CoV-2, UniProt P0DTC2 319-541); test: competition ELISA, RBD variant coated, competitor biotinylated ACE2
T1 construct: bought variant RBD; also called #SPD-552H7, ACRO Biosystems

[2] = biological target: T2, SARS-CoV-2 RBD mutant V367F (SARS-CoV-2, UniProt P0DTC2 319-541); test: as above
T2 construct: bought variant RBD; also called SPD-S52H4, ACRO Biosystems

[3] = biological target: T3, SARS-CoV-2 RBD mutant N354D/D364Y (SARS-CoV-2, UniProt P0DTC2 319-541); test: as above
T3 construct: bought variant RBD; also called SPD-S52H3, ACRO Biosystems

[4] = biological target: T1, SARS-CoV-2 RBD mutant W436R; test: direct binding to RBD variant (FIG. 7B); format not described further
[5] = biological target: T2, SARS-CoV-2 RBD mutant V367F; test: as above
[6] = biological target: T3, SARS-CoV-2 RBD mutant N354D/D364Y; test: as above

B1: NIH-CoVnb-112 (VHH)
VHH: DVQLQESGGGLVQPGGSLRLSCAASGLTLDYYAIGWFRQAPGKEREGVSCISSSDGSTYYADSVKGRFTTSRDNAKNTVYLQMNSLKPEDTAVYYCAAVPSTYYSGTYYYTCHPGGMDYWGKGTQVTVSS
Q: What does the source list for B1?
A: EC50 [1]: ~0.02 µg/mL and ~1.11 nM; EC50 [2]: ~0.02 µg/mL and ~1.11 nM; EC50 [3]: ~1.11 nM and ~0.02 µg/mL; EC50 [4]: ~0.01 µg/mL; EC50 [5]: ~0.01 µg/mL; EC50 [6]: ~0.01 µg/mL
